The results in this text go back to patent US6906033 (dated 2005).

Positions count from the first letter of the chain named.

Sequences and labels used below:
B1: TW6166 (protein)
chain: EVVREVCSEQAETGPCRAAIYRWYFDVTEGKCAPFFYGGCGGNRNNFDTEEYCMAVCGSAI
B2: TW6165 (protein)
chain: B1 chain with Y21W
B3: BG028 (protein)
chain: B1 chain with A19L
B4: TW6149 (protein)
chain: B1 chain with A19M, Y21S, R44A
B5: TW6148 (protein)
chain: B1 chain with A19M, Y21S, N43A
B6: TW124 (protein)
chain: EVCSEQAETGPCRAMISRWYFDVTEGKCAPFFYGGCGGNSNNFDTEEYCMAVCGSAI
B7: TW6163 (protein)
chain: B1 chain with A19M, I20H, Y21S
B8: TW6210 (protein)
chain: B1 chain with A19M, Y21Q
B9: DD102 (protein)
chain: B1 chain with A19M, Y21P
B10: DD103 (protein)
chain: B1 chain with A19M, Y21F
B11: CL006 (protein)
chain: B1 chain with A19M, Y21S, R22A
B12: BG012 (protein)
chain: B1 chain with A19M, Y21S, R22T
B13: BG001 (protein)
chain: B1 chain with A19M, I20L, Y21S
B14: TW6180 (protein)
chain: B1 chain with A19M, I20F, Y21S
B15: TW6168 (protein)
chain: B1 chain with A19M, Y21L
B16: TW6182 (protein)
chain: B1 chain with A19M, Y21H
B17: TW6181 (protein)
chain: B1 chain with A19M, I20K, Y21S
B18: DD104 (protein)
chain: B1 chain with A19M
B19: DD105 (protein)
chain: B1 chain with A19M, Y21W
B20: TW6194 (protein)
chain: B1 chain with A19M, Y21E
B21: TW6172 (protein)
chain: B1 chain with A19M, I20A, Y21S
B22: TW116 (protein)
chain: B6 chain with S17I, S40R
B23: AL301 (protein)
chain: B1 chain with A19M, Y21S, F36L
B24: TW6211 (protein)
chain: B1 chain with A19M, Y21S, R22K
B25: TW6140 (protein)
chain: B1 chain with A19M, Y21S, G41N
B26: TW118 (protein)
chain: B6 chain with G37R, S40R
B27: TW6141 (protein)
chain: B1 chain with A19M, Y21S, G41Q
B28: TW6155 (protein)
chain: B1 chain with A19M, Y21S, G41M
B29: TW6158 (protein)
chain: B1 chain with A19M, Y21S, G41T
B30: DD128 (protein)
chain: B1 chain with A19M, Y21S, R22L
B31: AL302 (protein)
chain: B1 chain with A19M, Y21S, F36G
B32: DD100 (protein)
chain: B1 chain with A19M, Y21S, G41C
B33: DD111 (protein)
chain: B1 chain with A19S, Y21S
B34: TW101 (protein)
chain: B6 chain with R13K, S40R
B35: TW106 (protein)
chain: B6 chain with M15R, S40R

T2 sequence (P03952 20-638): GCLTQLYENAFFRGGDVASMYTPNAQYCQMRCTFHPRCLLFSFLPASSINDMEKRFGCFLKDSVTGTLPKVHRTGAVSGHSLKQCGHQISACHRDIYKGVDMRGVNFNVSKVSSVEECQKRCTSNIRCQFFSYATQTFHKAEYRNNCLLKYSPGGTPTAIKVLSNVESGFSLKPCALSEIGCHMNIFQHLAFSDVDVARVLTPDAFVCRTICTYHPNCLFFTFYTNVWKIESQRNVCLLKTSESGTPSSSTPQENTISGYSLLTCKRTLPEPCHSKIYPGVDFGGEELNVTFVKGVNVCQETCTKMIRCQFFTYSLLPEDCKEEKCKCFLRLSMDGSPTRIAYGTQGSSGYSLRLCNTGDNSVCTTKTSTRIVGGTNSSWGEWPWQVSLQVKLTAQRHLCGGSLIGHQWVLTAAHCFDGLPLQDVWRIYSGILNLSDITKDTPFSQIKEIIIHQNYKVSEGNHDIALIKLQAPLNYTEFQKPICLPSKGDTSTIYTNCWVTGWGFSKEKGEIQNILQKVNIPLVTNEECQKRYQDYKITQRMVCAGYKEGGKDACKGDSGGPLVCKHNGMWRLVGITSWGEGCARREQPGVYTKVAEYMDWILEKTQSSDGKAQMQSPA

The first assay concerns the target T1, human factor XIIa (human, UniProt P00748 20-615, biotinylated with Biotin Ester (Zymed); sites not stated).
T1 chain: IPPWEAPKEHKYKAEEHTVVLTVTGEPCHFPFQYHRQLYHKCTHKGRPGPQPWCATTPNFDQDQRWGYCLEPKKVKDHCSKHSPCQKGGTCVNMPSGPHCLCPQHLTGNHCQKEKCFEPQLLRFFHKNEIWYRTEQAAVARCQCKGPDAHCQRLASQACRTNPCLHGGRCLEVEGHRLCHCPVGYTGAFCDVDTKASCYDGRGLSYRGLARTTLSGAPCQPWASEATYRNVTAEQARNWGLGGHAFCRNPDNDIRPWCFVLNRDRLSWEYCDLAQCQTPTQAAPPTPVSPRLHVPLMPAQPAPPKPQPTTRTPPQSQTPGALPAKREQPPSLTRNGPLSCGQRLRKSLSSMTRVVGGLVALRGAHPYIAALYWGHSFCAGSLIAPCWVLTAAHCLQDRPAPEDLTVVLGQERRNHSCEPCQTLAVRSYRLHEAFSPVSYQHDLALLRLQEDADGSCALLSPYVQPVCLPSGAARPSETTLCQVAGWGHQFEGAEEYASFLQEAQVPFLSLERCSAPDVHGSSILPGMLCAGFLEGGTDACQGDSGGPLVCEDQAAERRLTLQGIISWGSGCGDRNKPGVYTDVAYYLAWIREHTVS
The assay is described as follows: enzyme inhibition.
Usually Ki stands for the equilibrium dissociation constant of an inhibitor or competing ligand from its target. A lower Ki goes with a stronger hold on the target. As for B1, the inhibitory constant (Ki) came out at 73 nM.

B2 gave a Ki of 206 nM.

As for B3, affinity was put at a Ki of 93.8 nM.

The next assay addresses T2, human plasma kallikrein (human, UniProt P03952 20-638). Nature of the assay: enzyme inhibition.
For the molecule B4, affinity was put at a Ki of 54 nM.

B5 had a Ki of 40 nM.

On to B6, for which the Ki was 64 nM. This Ki is about 1.6-fold higher than that of the molecule before.

The next assay addresses T1, human factor XIIa. Nature of the assay: enzyme inhibition. The source holds these as a separate data set.
On to B7, for which the Ki was found to be 4530 nM. This counts as single-digit micromolar.

Take B8: the Ki came to 277 nM. This Ki is about 16-fold lower than that of the molecule before.

For the molecule B9, the Ki turned out to be 315 nM.

B10: the Ki was 2130 nM.

Take B11: the Ki stood at 89600 nM.

B12: affinity was put at a Ki of 40 nM. This Ki is about 2200-fold lower than that of the molecule before.

For the molecule B13, the affinity corresponds to a Ki of 489 nM. This Ki lies about 12-fold higher than the previous one.

The molecule B14 gave an inhibition constant (Ki) of 885 nM.

B15: the Ki is 3520 nM.

Regarding B16, the Ki was 752 nM. This Ki lies about 4.7-fold lower than the previous one.

In turn, B17 yielded a Ki of 1510 nM.

Molecule B18 displayed a Ki of 237 nM.

Take B19: the affinity corresponds to a Ki of 198 nM.

In another assay the target is T2, human plasma kallikrein. The assay is described as follows: enzyme inhibition. This is another data set of the same source.
Turning to B7, the Ki was determined as 4.7 nM.

Take B8: the Ki worked out at 54 nM.

In the case of B9, the affinity, expressed as Ki, was 16 nM.

In the case of B10, the Ki turned out to be 17 nM.

B11 gave a Ki of 110 nM. This Ki lies about 6.5-fold higher than the previous one.

Molecule B20 returned a Ki of 70.8 nM.

Turning to B13, the affinity, expressed as Ki, was 38 nM.

In the case of B21, the affinity, expressed as Ki, was 315 nM.

The molecule B14 registered an inhibition constant Ki of 70 nM.

Turning to B15, the inhibition constant (Ki) came to 25.8 nM.

On to B16, for which the affinity, expressed as Ki, was 36 nM.

In the case of B17, the affinity corresponds to a Ki of 150 nM.

B18 came in with a Ki of 15 nM.

As to B19, the affinity, expressed as Ki, was 18 nM.

Consider B22, for which the Ki amounted to 145 nM.

The target of the next assay is T3, human factor Xa (human, UniProt P00742 41-179; P00742 235-488).
T3 chain 1: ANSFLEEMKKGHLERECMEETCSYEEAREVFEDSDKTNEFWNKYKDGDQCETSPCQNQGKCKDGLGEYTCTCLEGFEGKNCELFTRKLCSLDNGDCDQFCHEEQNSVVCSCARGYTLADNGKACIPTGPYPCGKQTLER
T3 chain 2: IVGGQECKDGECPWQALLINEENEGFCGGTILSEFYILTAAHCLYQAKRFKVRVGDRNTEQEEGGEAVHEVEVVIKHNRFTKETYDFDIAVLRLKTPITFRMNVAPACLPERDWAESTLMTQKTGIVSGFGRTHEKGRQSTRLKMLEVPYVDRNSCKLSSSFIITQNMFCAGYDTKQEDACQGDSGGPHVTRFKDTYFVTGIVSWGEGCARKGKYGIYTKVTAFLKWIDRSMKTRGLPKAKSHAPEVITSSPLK
The assay is described as follows: enzyme inhibition.
Regarding B7, the affinity corresponds to a Ki of 457 nM.

The molecule B10 returned a Ki of 110 nM.

Consider B11, for which the Ki stood at 133 nM.

B12: the affinity corresponds to a Ki of 116 nM.

Consider B13, for which affinity was put at a Ki of 204 nM.

B21 displayed a Ki of 1460 nM.

Molecule B14 gave a Ki of 39 nM.

As for B15, the Ki turned out to be 395 nM.

In turn, B18 registered a Ki of 345 nM.

As for B19, the affinity corresponds to a Ki of 320 nM.

The molecule B22 returned a Ki of 806 nM.

A further assay concerns the target T1, human factor XIIa. Nature of the assay: enzyme inhibition. This is another data set of the same source.
As to B23, the Ki stood at 1560 nM.

In the case of B24, the affinity, expressed as Ki, was 402 nM. Compared with the last molecule, the Ki is about 3.9-fold lower.

As to B25, the affinity, expressed as Ki, was 475 nM.

For B26, the Ki stood at 13000 nM. Against the preceding molecule, the Ki is about 27-fold higher.

The next assay concerns the target T2, human plasma kallikrein. The assay is described as follows: enzyme inhibition. The source holds these as a separate data set.
On to B27, for which the affinity corresponds to a Ki of 42 nM.

The molecule B28 displayed a Ki of 11 nM.

In turn, B29 returned a Ki of 29 nM.

The molecule B23 had a Ki of 216 nM.

Molecule B24 came in with a Ki of 184 nM.

The molecule B30 came in with a Ki of 44 nM.

In turn, B31 gave a Ki of 39 nM.

In turn, B32 came in with a Ki of 15 nM.

B25 had a Ki of 35 nM. Compared with the last molecule, the Ki is about 2.3-fold higher.

Molecule B26 registered a Ki of 6 nM.

Another assay deals with T3, human factor Xa. Nature of the assay: enzyme inhibition. The source holds these as a separate data set.
With B28, the Ki was determined as 27 nM.

The molecule B30 registered a Ki of 37 nM.

The molecule B31 returned a Ki of 316 nM.

As to B26, the Ki was determined as 68 nM.

The target in the next assay is T2, human plasma kallikrein. The assay is described as follows: enzyme inhibition. The source holds these as a separate data set.
Molecule B33 yielded an inhibition constant Ki of 5.6 nM.

In the case of B34, the affinity, expressed as Ki, was 2000 nM.

B35: the Ki was found to be 560 nM.
